Reference: the nanobody polyreactivity screen of Harvey et al. (2022)

Assay: yeast display, Sf9 membrane polyspecificity reagent, FACS + sequencing; frameworks hold sequencing errors
How it was run: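 Galactose induction of a Saccharomyces cerevisiae BJ5465 synthetic nanobody display library ran 36–48 hours. The cells were then stained for 1 hour at 4 °C with 10% biotinylated, detergent-solubilized Sf9 membrane reagent, pulled down on streptavidin microbeads and FACS-sorted into low and high (top ~1%) gates on expression and reagent-binding fluorescence. Labels for polyreactivity follow the gate of origin.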

Row | Sequence | polyreactivity (PSR sort gate)
1 | QVQLVESGGGLVQAGGSLRLSCAASGRNFYYYAMGWYRQAPGKERELVATITGSGGNTYYADSVKGRFTISRDNAKNTVYLQMNSLKPEDTAVYFCNARLARGYWTPGKERPMEYWGQGTQVTVSS | low polyreactivity
2 | QVQLVESGGGLVQAGGSLRLSCAASGRTIYGYAMGWYRQAPGKERELVARIRSGGSTNYADSVKGRFTISRDNAKNTVYLQMNSLKPEDTAVYYCAARPGAAGYKYYYWGQGTQVTVSS | high polyreactivity
3 | QVQLVESGGGLDQAGGRLRLSCAASGFTIRDNAMGWYRQAPGKEMELVAAISRSGDSTNYADSVKGRFTISRDNAKNTVYLQMNSLKPEDTAVYYSAAKRRYTTYDYWGQGTLVTVSS | high polyreactivity
4 | QVQLVESGGGLVQAGGSHRVSCAASGSTFDRYTMGWYRQAPGTERELVAAISISGGSTYYADSVKGRFTISRDNAKNTVYVQMNSLKPEDTAVYYCAARLDTVTDYYYWGQGTQVNVSS | low polyreactivity
5 | QVQLVESGGGLVQAGGSLRLSCAASGSISGYYAMGWYRQAPGKESELVASIRYTGARTYYADSVKGRFTISRDNAKNTVYLQMNSLKPEDTAVYYCAADVKRDRVWGGDYWGQGTQVTVSS | low polyreactivity
6 | QVQLVESGGGLVQARGSLRLSCAASGFIFLYNAMGWYRQAPGKERELLAAITSSGGTTYYADSVKGRFTISRDNAKNTVYLQMNSLKPEDTAVYYCAARYTGRNGGSNTPEYDYWVQGTQVTVSS | low polyreactivity
7 | QVQLVESGGGLVQAGGSLRLSCAASGSIFDYYAMGWYRQAPGKERELVATISWIGDRTYYADSVKGRFTISRDNAKNTVYLQMNSLKPEDTAVYYCATDYYEDWRGYVDYWYRPYDYWGHGTQVTVSS | high polyreactivity
8 | QVQLVESGGGLVQAGGSLRLSCAASGSTFPSYAMGWYRQAPGKERELVAAINSGGGTNYADSVKGRFTISRDTAKNTVYLQMNSLKPEDTAVYYCAKARYDYTKPEGGYWGQGTHVTVSS | low polyreactivity
9 | QVQLVESGGGLVQAGGSLRLSCAASGSTIQQYAMGWYRQAPGKEREFVAAISWRGGRTYYADSVKGRFTISRDKAKNTVYLQMNSLKPEDTAVYYCAVDPSIYRLSAYYYDYWGQGTQVTVSS | low polyreactivity
10 | QVQLVESGGGVVQAGRSLRLSCAASGSTFWAYLMGWYRQAPGIERELVASISRGGSTNYTDSVKGRFTISRDNAKNTVYLQMNSLKPEDTEVYYCAKRPYPYKYDYWGQGRQVTVSS | high polyreactivity
11 | QVQLVESGGGLLKAGGSLRLSCAASGRIFDIYNMGWYRPAPGKERELVAAISSSGGRTYYADSVKGRFTISRDNAKTTVYLQMKSVKPEDTAVYYGAARPSKYVGSRGYDYWGQGTQVTVSS | high polyreactivity
12 | QVQLVESGGGLVQAGGSLRLSCAASGRTFSSYAMGWYRQAPGKERELVASISKSGGSTSYADSVKGRFTISRDNAKNTVYLQMNSLKPEDTAVYYCNARLDYSTYESSPVTRKRYYWGQGTQVTVSS | low polyreactivity
13 | QVQIVESGGGLVQAGGSLRLSCAASGRIFGYNTMGWYRQAPGKERELVASISYYGGGPYYADSVKGRFTISRDLAKYTFYLQMNSLKPEDTAVYYCNALSYGYDDAYGYWGQGTQVTVSS | low polyreactivity
14 | QVQLVESGGGLVQAGGSLRLSCAASGSIFRYNAMGWYRQAPGKERELVAAIDWSGGTYYADSVKGRFTISRDNAKNTVYLQMNSLKPEDTAVYYCNARGSKYSSYWGYDYWGQGTQVTVSS | low polyreactivity
15 | QVQLVESGRGIVQAGGSLRLSCAASGLTFSSNAMVWYRQAPGKEREMVAVITNGGSTNYADSVKGRFTISRDNAKNTVYLQMNSLKPEDTAVYYCAKDGGPAQDIGMDYWGQGTQVTVSS | low polyreactivity
16 | QVHLVESGGGLVQAGGSLRLSCAASGSIFRLYSMGWYRQAPGKERELVARITTGGSTNYADSVKGRFTISRDNAKNTVYLQMNSLKPEDTAVYYCNAGVWVTAQLGLQKYSYWGQGTQVTVSS | high polyreactivity
17 | QVQLVESGGGLVQAGGSLRLSCAASGSTFFRYTMGWYRQAPGKERELVAAISWSGGSTYYADSVKGRFTISRDNAKNTVYLQMNSLKPEDTAVYYCAAVYEWDAVKWVDVDMDYWGQGTQVTVSS | low polyreactivity
18 | QVQLVESGGGLVQAGGSLRISCAASGSTFSPYAMGWYRQAPRKERELFAAISASGGGTYYADSVKGRFTISRDNAKNTVYLQMNSLKPEDTAVYYCARDYGWDISKGRYGYWGQGTQVTVSS | low polyreactivity
19 | QVQLVESGGGLVQAGGSLRLSCAASGRIFAAYAMGWYRQAPGKERELVAAITRRGSTYYADSVKGRFTISRDNAKNTVYLQMNSLKPEDTAVYYCNKVPLFQYSTAWYDYWGQGTQVTVSS | high polyreactivity
20 | QVQLVESGGGLVQAGGSLPLSCAASGRTFPVYAMGWYRQAPGKERELVARINSGGRTTDADSVKGRFTISRDNAKNTVYLPKNSLKPEDSAVYYCNADSTYFRFDYWGQGTQVTVSS | high polyreactivity
21 | QVHLVESGGGLVQAGGSLHLSCAPSGRTFGYYAKGGYRQAPGKEREFVAAISHSAGSTSYADSVKGRFTLSRDNAKNTVYLQMNSLKPEDTAVYYCATPSQLHPYEYWGQGSQVTVSS | low polyreactivity
22 | QVQLVESGGGLVQAGGSLRLSCAASGSIFRPNAMGWYRQAPGKERELVAAITFRGSRTYYADSVKGRFTISRDNAKNTVYLQMNSLKPEDTAVYYCNADYSSYWTSYDYWGQGTQVTVSS | high polyreactivity

Row | Sequence | polyreactivity (PSR sort gate)
23 | QVQLVESGGGLVQAGGSLRLSCAASGFTFLKYAMGWYRQAPGKERELVARITSGGRTYYADSVKGRFTISRDNAKNTVYLQMNSLKPEDTAVYYCNAVKSYASLYAGFYYWGQGTQVTVSS | high polyreactivity
24 | QVQLVESGGGLVQAGGSLRLSCAASGRIFSRYAMGWYRQAPGKERELVAAISWSGGSTYYADSVKGRFTISRDNAKNTVYLQINSLKPEDTAVYYCAAKRQYTEYNYWGQGTQVTVSS | high polyreactivity
25 | QVQLVESGGGLVQAGGSLRLSCAASGIIFVSYDMGWYRQAPGKERELVAAINRGGRTYYADSVKGRFTISRDNAKNTVYLQMNSLKAEDTAVYYCAAQFHFRPFSLTYDYWGQGTQLTVSS | high polyreactivity
26 | QVQLVESGGGLVQAGGSLRLSCAASGGIFSRNAMGWYRQAPGKERELVADISRTGDSTYYADSVKGRFTISRDNAKNTVYLQMNSLKPEDTAVYYCNRDAFVGDRTVRVTTTNWGQGTQVTVSS | low polyreactivity
27 | QVHLVESGGGLVQAGGSLRLSCAASGTTFGVYALGWYRQAPGKERELVAVITSRGGSTYYADSVKGRFTISRDNAKNTVYLQMNSLKPEDSAVYYCNTSTSRVPGNGEYWGQGTQVTVSS | high polyreactivity
28 | QVQLVESGGGLVQAGGSLRLSCSASGFTFKRYAKGLYRQAHGKERELVASISSSGGRTYYADSVKGRFTISRDNAKNTVYLQMNSLKPEDTAVYYCSASDWWGYYFWGQGTQVTVSS | high polyreactivity
29 | QVQLVESGGGLVQAGGSLRLSCAASGGTFQGNAMGWYRQAPGKEREFVATITRGGGSTYYADSVKGRFTISRDNAKNTVYLQMNSLKPEDTAVYYCNAKPSYYQRYNYWGQGTQVTVSS | high polyreactivity
30 | QVQLVESGGGLVQAGGSLRLSCAASGRTFEYYAMGWYRQAPGKEREFVAAISRRGDSTYYADSVKGRFTISRDNAKNTVYLQMNSLKPEDTAVYYCAAKSYSARTKYYYWGQGTQVTVSS | high polyreactivity
31 | QVQLLESCGGLVQAGGSLRLSCAASGSILTQYAMGWYRQAPGKERELVAAITGRGGSTYYADSVKGRFTISRDIAMYTVYLEMNSLKPEDTAVFYCAAEERYAYRYDYWGQGTQVTVSS | high polyreactivity
32 | QVQLVESGGGLVQAGGSLRLICAATGRNFRYYAMGWYRQAAGKERQLVAAIRNGGSTYYADSVKGRFTISRDNAKNTVYLQMNSLKPEDTAVYYCAGRYNYVSHRGGDWGHGTQVTVSS | high polyreactivity
33 | QVQLVESGGGLVQAGGSLRLSCAASGSILRYYAKGWYRQAPGKERELVASINWSGGSTYYADSVKGRFTISRDNAKNTVYLQMNSLKPEDTAVYYCAARRRSAEYNYWGQGTQVTVSS | high polyreactivity
34 | QVQLQGSGGGLVQSGGSLRLSCAASGKIFDADIMGWYRQAPGKESELVASITHGGSTNYADSVKGRFTISRDNAKNNVYLQMNSLIQEDTAVYYCAAIAYPDIPTYFDYDSDCFYWSQGTQVTVSS | high polyreactivity
35 | QDQLVESGGGLVQEGGSLRLICAASGRTLQSYAMGGYRQAPGKERELVAAISGGASTYADSVKGRFTISRDNAKNTVYLQMNSLKPEDTAVYYCAADDDPVPTYEYDYWGQGTQVTVSS | low polyreactivity
36 | QVQLVESGGGLVQAGGSLRLSCAASGSTFYFNAMGWYRQAPGKERELVATIRSGDSTYYADSVKGRFTISSDNAKNTVYLQMNSLKPVDTAVYSCPGPLPYYGQYDYWGQGTQVTVSS | low polyreactivity
37 | QVQLVESGAGLVQAGGSLRLSCAASGRIFAYNAMGWYRQAPGKERELVAGITIRGGRTYYADSVKGRFTISRYNAKNTVYLQMNSLKPEDTAVYYCNARGWYEYGWGQGTQVTVSS | high polyreactivity
38 | QVQLVESGGGLVQAGGSLRLSCAASGSILYRYTMGWYRPAPGKERELVAAITKRGGRTYYADSVKGRFTISRDNAKNTVYLQMNSLKPEDTAVYYCAAKYYTGGSFEMYYGGQGTQVTVSS | high polyreactivity
39 | QVQLVESGGGLVQAGGTLRLTCAASGSIFSAYAMGWYRQEPGKEREFVAAITRRGGNTYYADSVKGRFTISRDNAKNTVYVQMNSLKPEDTAVYYCAAVAGGGPFDYWGQGTQVTVSS | low polyreactivity
40 | QVQLVESGGGLVQAGGSLRLSSAASGGIFFIYVMGWYRQAPGKERELVAAISWSGGDTYYADSVQGRFTISRDNAKNTVYVQMNSLKPEDTAVYYCAARYYYLGTRYGYWGQGTQVTVSS | low polyreactivity
41 | QVQLVESGGGLVQAGGSLRLSCAASGSTFDVNAMGSYRQAPGKERELVAAISWNSGSTYFADSVKGRFTISRDNAKNTVYLQMNRLKPEDTAVYYCAATYGTGRRSKYGYWGQGTQVTVSS | high polyreactivity
42 | QVQLVEAGGGLVQAGGSLRLSCAASGRIFVYYTMGWYRQAPGKERELVAAIIGGGSTNYADSVKGRFTISRDNAKNTVYLQMNSLKPEDTAVYDCAAVRYRYSYVSHSRIYDYWGQGTQVTVSS | high polyreactivity
43 | QDQLVESGGGLVQAVGSLRLSCAASGFTFYRNAMGWYRQAPGKERELVAAITWSGTSTYFADSVKGRFTISRDNAQNTVYLQLNSLKPEDTAVYYCNARGFQKSDPRGYLILNYWGQGTQVTVSS | high polyreactivity
